Measurements taken from patent publication US20090191571A1.

The binders below were run against T1, PrP^Sc (pathogenic mouse prion protein, RML, in infected Balb-c mouse brain homogenate) (mouse), P04925.

Which ELISA A405nm does the source give for GGWGQGGGTHNQWNKPSKPKTN (modifications not checked) [Peptide reagent SEQ ID NO:53] here?
The ELISA A405nm was 0.254 A405nm.

GGTHNQWNKPSKPKTN (modifications not checked) [Peptide reagent SEQ ID NO:54] was tested. Which ELISA A405nm did it give?
The ELISA A405nm was 0.253 A405nm.

With GGGAGAAAAGAVVGGLGG (modifications not checked) [Peptide reagent SEQ ID NO:56] as the binder, how does the ELISA A405nm read?
The ELISA A405nm was 0.313 A405nm.

KKKAGAAAAGAVVGGLGG (modifications not checked) [Peptide reagent SEQ ID NO:65] was tested. Which ELISA A405nm did it give?
Its ELISA A405nm is 0.635 A405nm.

PHGGGWGQ (modifications not checked) [Peptide reagent SEQ ID NO:71] was tested. Which ELISA A405nm did it give?
Its ELISA A405nm is 0.263 A405nm.

How did the ELISA A405nm turn out when GGGGPKRKGPK (modifications not checked) [Peptide reagent SEQ ID NO:73] was run?
The ELISA A405nm was 1.06 A405nm.

How did the ELISA A405nm turn out when GGGNKPSKPK (modifications not checked) [Peptide reagent SEQ ID NO:79] was run?
Its ELISA A405nm is 0.24 A405nm.

Which ELISA A405nm does the source give for GGGKPSKPK (modifications not checked) [Peptide reagent SEQ ID NO:80] here?
The ELISA A405nm was 0.225 A405nm.

GGGKKRPKPGGGKKRPKPGG (modifications not checked) [Peptide reagent SEQ ID NO:72] was tested. Which ELISA A405nm did it give?
The ELISA A405nm was 0.522 A405nm.

GGGKKKKKKKK (modifications not checked) [Peptide reagent SEQ ID NO:85] was tested. Which ELISA A405nm did it give?
The ELISA A405nm was 0.53 A405nm.

GGGKKRAKAGG (modifications not checked) [Peptide reagent SEQ ID NO:98] was tested. Which ELISA A405nm did it give?
Its ELISA A405nm is 1.46 A405nm.

Target: T1, PrP^Sc (pathogenic mouse prion protein, …)
Remark: another data set of the same source

Which ELISA A405nm does the source give for GGGAKRPKPGG (modifications not checked) [Peptide reagent SEQ ID NO:104] here?
Its ELISA A405nm is 0.273 A405nm.

Which ELISA A405nm does the source give for GGGKARPKPGG (modifications not checked) [Peptide reagent SEQ ID NO:105] here?
The ELISA A405nm was 0.256 A405nm.

GGGKKAPKPGG (modifications not checked) [Peptide reagent SEQ ID NO:106] was tested. Which ELISA A405nm did it give?
Its ELISA A405nm is 0.268 A405nm.

Which ELISA A405nm does the source give for GGGKKRPAPGG (modifications not checked) [Peptide reagent SEQ ID NO:107] here?
Its ELISA A405nm is 0.578 A405nm.
